Where only a bound is given, the exact number is not on record here.

Assay [1] has as its target P66 G175V (site-directed mutant, B. burgdorferi B31 A3) (Borrelia burgdorferi (strain B31 A3)).
Assay [2] has the same target. The experiment in a line: native gel or EMSA; BN-PAGE of outer membrane proteins (B-fractions) of the B. burgdorferi strains, immunoblot probed with rabbit polyclonal antibody D8713 against P66.
Assay [3] deals with P66 G584R (site-directed mutant, B. burgdorferi B31 A3) (Borrelia burgdorferi (strain B31 A3)).
For assay [4] the target is unchanged. The experiment in a line: native gel or EMSA; BN-PAGE of outer membrane proteins (B-fractions) of the B. burgdorferi strains, immunoblot probed with rabbit polyclonal antibody D8713 against P66.
The target in assay [5] is P66 T176M (site-directed mutant, B. burgdorferi B31 A3) (Borrelia burgdorferi (strain B31 A3)).
For assay [6] the target is unchanged. Briefly: native gel or EMSA; BN-PAGE of outer membrane proteins (B-fractions) of the B. burgdorferi strains, immunoblot probed with rabbit polyclonal antibody D8713 against P66.

Substance “P66 G175V (site-directed mutant, B. burgdorferi B31 A3) (natural protein)” registered a black lipid bilayer (BLB) channel conductance of B-fractions in 1 M KCl, 20 mV in assay [1] of under 5 nS. This substance showed a stoichiometry N in assay [2] of 3.
“P66 G584R (site-directed mutant, B. burgdorferi B31 A3) (natural protein)” displayed a black lipid bilayer (BLB) channel conductance of B-fractions in 1 M KCl, 20 mV in assay [3] of under 5 nS. The stoichiometry N in assay [4] came to 3.
“P66 T176M (site-directed mutant, B. burgdorferi B31 A3) (natural protein)”: in assay [5], the black lipid bilayer (BLB) channel conductance of B-fractions in 1 M KCl, 20 mV was under 5 nS. In assay [6], this substance gave a stoichiometry N of 3.

For the origin of these results see article PMC11790652.
